In the DeepSol protein solubility set:

Assay: soluble on expression in E. coli; label from the status in PepcDB or PDB records

Soluble on expression in E. coli, not soluble:
MCGKFTLFSEFDDIIEQFNIDQFLPEGEYHPSYNVAPSQNILTIINDGSNNRLGKLRWGLIPPCAKDEKIGYKMINARAETLAEKPSFRKPLGSKRCIIPADSFYEWKRLDPKTKIPMRIKLKSSNLFAFAGLYEKWNTLEGNLLYTCTIITIKPSELMEDIHDRMPVILTDENKKEWLNPKNTDPDYLQSLLLPYDADDMEAYQVSSLVNSPELIESHLEHHHHHH
MSSAKLFTPLKVGAITATNRVFMAPLTRLRSIEPGDIPTPLMAEYYRQRASAGLIISEATQISAQAKGYAGAPGLHSDEQIAAWKKITQGVHAQGGHMAVQLWHTGRISHASLQPGGQAPVAPSAINAGTRTSLRDENGQAIRVETSTPRALDTHEIPGIVNDFRQAIANAREAGFDLVELHSAHGYLLHQFLSPSSNHRTDRYGGGVENRARLVLEVVDAGIKEWGADRIGIRLSPVGTFQNVDNGPNEEADALYLIEALGKRGIAYLHMSEPDWAGGEPYSDAFREKVRARFHGPIIGAGAYTPEKAEDLIEKGLIDAVAFGRDYIANPDLVARLQRKAELNPQRPESFYGGGAEGYTDYPTL
MAPAPEVVSWAEAVEQDNAPHIQEGADGTRTETAFTEVDGVRWKVVTQFKVINKRVPKVVADRKKWVKFGSCKGEPAGPQVATTYVAEEVDMQFTRNRAGEQILDVQEDKQTAKTTSREHCRHCKGNDHWSTHCPYKVMYQLDEEADADKDTEKDRMAMGMRPDGRQIDRNRSDENTCRVTNLPQEMNEDELRDLFGKIGRVIRIFIARDKVTGLPKGFAFVTFESRDDAARAIAELNDIRMYHMVLKVEWTRPSN
MSLLHERINFNPKVDVEVKLPERLEEGKITEVNVVVRNRGSKGILEVKIEGEDLIGEAKRVKLDSGEKLVKLSVKPLNKGDKVLKVKALFEDELNLYYSEVYEAEFSIQVLPSVDSIREAAREEVSIRMREALKKGKIGVESTELYGLREYLPGDDVRRIDWKATTRLRKLIVKEFMRESEGDVYIVLDATREMRKRIRRSKIDYASSLVLYIATILIRSNKRVGLILFSEDEFKVVKPEKGSEQLERIRETLRFKPLKGLTSFKGEVGRLKTWDFLRKLFPRKRRGVEEALLSIRNPSYVILITDLMSNTPRLYSAVSMVKKKHKVIILSPNPVLFYSGELDEETLRFLYEKYRERERILRKFNSLVPTVDLGPSDYGREVLEVLEGEGHHHHHH
MASINWSEISTVLIDMDGTILDLHFDNHFWLEHLPARYSEKMSISLDAAKAKLKADYLSVVGTIKWYCLDYWAEQTQMPITELKREIQHLIQLRTDARDFLIALKASGRDVVLVTNAHPESLSLKIERTQLDQYFDVLYSTHDFGVTKESQLLWQRLQEKHGFDCDSTLFIDDSIEILQSAQQYGIKHLLAVANPDSKKTANVITDFPAITSFDLLTAQLSKELINSTSN

Soluble on expression in E. coli, soluble:
MTSACGFHLRGDYLLPDEVHEISLTSFDQYSSLTRDVQKQLRMNGIRQVAPTTVTPSLDLISESLNERTLSLYQNSRAAEKELTYNVSYSVLIPGHDLKTYTTTVNRNYLDNPLTALAKSVERDMIEEEMRAQAAEQILRQMARLKADDAPVETSDVITHDDETESKVTTKEVIKSMSTTAETTQLEHHHHHH
MVLLKEYRVILPVSVDEYQVGQLYSVAEASKNETGGGEGVEVLVNEPYEKDDGEKGQYTHKIYHLQSKVPTFVRMLAPEGALNIHEKAWNAYPYCRTVITNEYMKEDFLIKIETWHKPDLGTQENVHKLEPEAWKHVEAIYIDIADRSQVLSKDYKAEEDPAKFKSIKTGRGPLGPNWKQELVNQKDCPYMCAYKLVTVKFKWWGLQNKVENFIHKQEKRLFTNFHRQLFCWLDKWVDLTMDDIRRMEEETKRQLDEMRQKDPVKGMTADD
MQRGIVWVVDDDSSIRWVLERALAGAGLTCTTFENGNEVLAALASKTPDVLLSDIRMPGMDGLALLKQIKQRHPMLPVIIMTAHSDLDAAVSAYQQGAFDYLPKPFDIDEAVALVERAISHYQE
GSMAGGVDGPIGIPFPDHSSDILSGLNEQRTQGLLCDVVILVEGREFPTHRSVLAACSQYFKKLFTSGAVVDQQNVYEIDFVSAEALTALMDFAYTATLTVSTANVGDILSAARLLEIPAVSHVCADLLDRQI
MSEAEAKLWQHLRAGRLNGYKFRRQQPMGNYIVDFMCVTPKLIVEADGGQHAEQAVYDHARTVYLNSLGFTVLRFWNHEILQQTNDVLAEILRVLQELEKQ
